{"source": "paper PMC4450493", "about": "“Binding of undamaged double stranded DNA to vaccinia virus uracil-DNA Glycosylase”", "molecular_target": "D4 (vaccinia virus uracil-DNA glycosylase, tfD4) (Vaccinia virus, UniProt P04303 1-218)", "assay": "X-ray crystallography (2.89 A); undamaged DNA without uracil; glycerol in active sites; no A20", "details": "protein: recombinant; tags: His6 tag cleaved; three vector-encoded residues GSH remain at N-terminus; chain copies: 2; blunt; palindromic, two copies of the same strand", "data": [{"binder": "self-complementary 12mer dsDNA (dsDNA) DNA 1: GCAAACGTTTGC DNA 2: GCAAACGTTTGC", "values": [{"measurement": "binding result", "result": "binds"}]}]}
